For data set [1], the target named is B. subtilis β-clamp, cysteine-modified variant (residues 1–380 including the added Ser379–Cys380 dipeptide) (B. subtilis) (UniProt P05649). The data set can be described thus: SAXS.
The data set “SAXS” deals with the molecule itself. The data set can be described thus: SAXS.

B1: B. subtilis MutL C-terminal domain, inactive cysteine-modified variant (residues 433–627; E485C, C531S, C573S, C604S) (domain or fragment, UniProt P49850 433-627, looked up)
chain: SDRVPIMYPIGQMHGTYILAQNENGLYIIDQHAAQERIKYEYFREKVGEVEPCVQEMIVPLTFHYSTNEALIIEQHKQELESVGVFLESFGSNSYIVRSHPAWFPKGEEAELIEEIIQQVLDSKNIDIKKLREEAAIMMSSKGSIKANRHLRNDEIKALLDDLRSTSDPFTSPHGRPIIIHHSTYEMEKMFKRVM
Usually stoichiometry N stands for a count of units in the complex or per binding partner. On to B1, for which the stoichiometry N amounted to 1 in data set [1] and 2 in “SAXS”.

For the origin of these results see publication PMC4678855 (Nucleic Acids Research, 2015).
